Laboratory results taken from article PMC5986207, “Structural insights into the mechanism of action of a biparatopic anti-HER2 antibody” (The Journal of Biological Chemistry, 2018).

Molecular target: T1, human HER2 extracellular domain, soluble, His-tagged (Homo sapiens)
T1 construct: human HER2 (ERBB2) extracellular domain, subdomains I-IV; the electron density covers amino acids 1 to 575, leaving the last 55 residues invisible; About 86 kDa, of which 17 kDa glycan; The purified His-tagged HER2 (crystals, AUC); also called HER2 ecd; soluble HER2; source: HEK293F; purified (IMAC, Superdex200) for crystals; cell culture supernatant for SPR
Assay: AUC; multisignal sedimentation velocity (MSSV), 4:1 molar loading of HER2 to antibody (5.8:1.4 μM), PBS, 20 °C, 42,000 rpm, UV 280 and 250 nm and interference, SEDPHAT
Conditions: both partners purified

B1: anti-HER2 fully human mAb 39S (IgG1κ) (antibody, V domains shown)
VH: EVQLVESGGGLVKPGGSLRLSCAASGFTFSSYSMSWVRQAPGKGLEWVSSISSSSSYIYYADSVKGRFTISRDNAKNSLYLQMNSLRAEDTAVYYCARGGDAYNYYYFDYWGQGTLVTVSS
VL: DIVMTQTPLSLSVTPGQPASISCKSSQSVFFRSNNKNILAWYLQKPGQPPQLLIYWASSRESGVPDRFSGSGSGTDFTLKISRVEAEDVGVYYCQQYFGSPFTFGPGTKVDIK
notes: variable domain of the 39S heavy chain; as in the heavy chain of m1 (PDB 6ATT); human IgG1 heavy chain constant region (its CH1 is also in the heavy chain of PDB 6ATT); whole kappa light chain of 39S; as the light chain of m1 (PDB 6ATT); IgG1 kappa, about 148 kDa; also called 39S mAb; Antibody 39S
stoichiometry N: 2 HER2 per 39S mAb
